# Data reported in IntAct's records for PubMed 23222540.
# Target: ogt1_human OGT (UniProt O15294)
# UniProt O15294, sequence (O15294 whole entry): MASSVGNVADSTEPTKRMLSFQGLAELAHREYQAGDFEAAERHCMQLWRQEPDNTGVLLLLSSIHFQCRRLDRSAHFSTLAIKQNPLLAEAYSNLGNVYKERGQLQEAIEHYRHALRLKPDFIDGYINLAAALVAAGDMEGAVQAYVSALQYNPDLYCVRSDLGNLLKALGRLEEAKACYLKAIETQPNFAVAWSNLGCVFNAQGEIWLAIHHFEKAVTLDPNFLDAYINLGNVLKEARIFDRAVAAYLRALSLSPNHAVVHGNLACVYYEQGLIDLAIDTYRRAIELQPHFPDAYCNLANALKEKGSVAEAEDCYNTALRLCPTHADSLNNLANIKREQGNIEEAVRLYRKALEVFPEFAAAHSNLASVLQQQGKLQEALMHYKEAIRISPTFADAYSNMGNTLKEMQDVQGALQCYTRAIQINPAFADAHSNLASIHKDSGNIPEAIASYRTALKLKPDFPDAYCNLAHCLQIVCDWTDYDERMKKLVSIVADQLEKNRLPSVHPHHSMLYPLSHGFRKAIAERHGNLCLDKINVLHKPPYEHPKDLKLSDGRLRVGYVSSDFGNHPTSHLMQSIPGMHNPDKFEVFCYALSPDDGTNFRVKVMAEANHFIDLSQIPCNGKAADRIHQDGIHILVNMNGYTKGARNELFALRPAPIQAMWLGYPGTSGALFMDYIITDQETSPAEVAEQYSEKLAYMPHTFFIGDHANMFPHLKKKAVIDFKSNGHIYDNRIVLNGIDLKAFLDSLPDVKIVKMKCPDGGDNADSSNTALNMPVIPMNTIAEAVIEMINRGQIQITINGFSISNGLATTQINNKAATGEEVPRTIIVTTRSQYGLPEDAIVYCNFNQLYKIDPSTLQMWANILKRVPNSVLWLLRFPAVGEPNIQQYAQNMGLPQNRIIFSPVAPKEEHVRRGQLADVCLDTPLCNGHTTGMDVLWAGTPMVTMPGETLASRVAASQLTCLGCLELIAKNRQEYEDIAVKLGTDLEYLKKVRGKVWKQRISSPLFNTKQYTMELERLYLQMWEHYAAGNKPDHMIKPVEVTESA
substance,measurement,value
"Methylcytosine dioxygenase TET2 (Homo sapiens), Q6N021-1 H1382Y;D1384A",effect of a mutation on the interaction,with no effect
